Reference: the supplement of paper PMC11246515
± gives the standard deviation of the averaged measurements.

Assay: total protein half-life in vivo (active degradation + dilution); higher = more stable protein
[1] = E. coli NCM3722 delta-clpP delta-lon delta-hslV, growth: N-lim chemostat, doubling time 6 h
[2] = E. coli NCM3722 delta-clpP, growth: N-lim chemostat, doubling time 6 h
[3] = E. coli NCM3722 delta-hslV, growth: N-lim chemostat, doubling time 6 h
[4] = E. coli NCM3722 delta-lon, growth: N-lim chemostat, doubling time 6 h
[5] = E. coli NCM3722 delta-smpB, growth: N-lim chemostat, doubling time 6 h
[6] = wild type E. coli NCM3722, growth: C-lim chemostat, doubling time 3 h
[7] = wild type E. coli NCM3722, growth: C-lim chemostat, doubling time 6 h
[8] = wild type E. coli NCM3722, growth: C-lim chemostat, doubling time 12 h
[9] = wild type E. coli NCM3722, growth: N-lim chemostat, doubling time 6 h
[10] = wild type E. coli NCM3722, growth: N-lim chemostat, doubling time 12 h
[11] = wild type E. coli NCM3722, growth: P-lim chemostat, doubling time 6 h
[12] = wild type E. coli NCM3722, growth: P-lim chemostat, doubling time 12 h

Sequence	total protein half-life in vivo [1]	total protein half-life in vivo [2]	total protein half-life in vivo [3]	total protein half-life in vivo [4]	total protein half-life in vivo [5]	total protein half-life in vivo [6]	total protein half-life in vivo [7]	total protein half-life in vivo [8]	total protein half-life in vivo [9]	total protein half-life in vivo [10]	total protein half-life in vivo [11]	total protein half-life in vivo [12]
MKVLIVESEFLHQDTWVGNAVERLADALSQQNVTVIKSTSFDDGFAILSSNEAIDCLMFSYQMEHPDEHQNVRQLIGKLHERQQNVPVFLLGDREKALAAMDRDLLELVDEFAWILEDTADFIAGRAVAAMTRYRQQLLPPLFSALMKYSDIHEYSWAAPGHQGGVGFTKTPAGRFYHDYYGENLFRTDMGIERTSLGSLLDHTGAFGESEKYAARVFGADRSWSVVVGTSGSNRTIMQACMTDNDVVVVDRNCHKSIEQGLMLTGAKPVYMVPSRNRYGIIGPIYPQEMQPETLQKKISESPLTKDKAGQKPSYCVVTNCTYDGVCYNAKEAQDLLEKTSDRLHFDEAWYGYARFNPIYADHYAMRGEPGDHNGPTVFATHSTHKLLNALSQASYIHVREGRGAINFSRFNQAYMMHATTSPLYAICASNDVAVSMMDGNSGLSLTQEVIDEAVDFRQAMARLYKEFTADGSWFFKPWNKEVVTDPQTGKTYDFADAPTKLLTTVQDCWVMHPGESWHGFKDIPDNWSMLDPIKVSILAPGMGEDGELEETGVPAALVTAWLGRHGIVPTRTTDFQIMFLFSMGVTRGKWGTLVNTLCSFKRHYDANTPLAQVMPELVEQYPDTYANMGIHDLGDTMFAWLKENNPGARLNEAYSGLPVAEVTPREAYNAIVDNNVELVSIENLPGRIAANSVIPYPPGIPMLLSGENFGDKNSPQVSYLRSLQSWDHHFPGFEHETEGTEIIDGIYHVMCVKA	5.82 ± 0.47 h	4.96 ± 1.1 h	6.09 ± 0.29 h	5.74 ± 0.22 h	5.38 ± 0.21 h	3.193 ± 0.023 h	5.14 ± 0.23 h	11.5 ± 0.12 h	6.03 ± 0.28 h	12.1 ± 2 h	6.14 ± 0.3 h	11.5 ± 0.15 h
MPVFALLALVAYSVSLALIVPGLLQKNGGWRRMAIISAVIALVCHAIALEARILPDGDSGQNLSLLNVGSLVSLMICTVMTIVASRNRGWLLLPIVYAFALINLALATFMPNEYITHLEATPGMLVHIGLSLFSYATLIIAALYALQLAWIDYQLKNKKLAFNQEMPPLMSIERKMFHITQIGVVLLTLTLCTGLFYMHNLFSMENIDKAVLSIVAWFVYIVLLWGHYHEGWRGRRVVWFNVAGAVILTLAYFGSRIVQQLIS								13.6 h	6.45 h			15.5 h
MQFSTTPTLEGQTIVEYCGVVTGEAILGANIFRDFFAGIRDIVGGRSGAYEKELRKAREIAFEELGSQARALGADAVVGIDIDYETVGQNGSMLMVSVSGTAVKTRR [P0A8C1]	4.49 ± 0.27 h	4.01 ± 0.34 h	3.9 ± 0.47 h	4.39 ± 0.13 h	4.26 ± 0.15 h	2.918 ± 0.013 h	5.49 ± 0.17 h	10.2 ± 3.2 h	3.84 ± 0.47 h	6.45 ± 0.22 h	5.53 ± 0.24 h	12.2 ± 0.14 h
MNKEQSADDPSVDLIRVKNMLNSTISMSYPDVVIACIEHKVSLEAFRAIEAALVKHDNNMKDYSLVVD	> 8 h		> 8 h	> 8 h		2.94 ± 0.043 h		9.95 h		10.8 ± 6 h	4.21 h	
MKTTAKLSFMMFVEWFIWGAWFVPLWLWLSKSGFSAGEIGWSYACTAIAAILSPILVGSITDRFFSAQKVLAVLMFAGALLMYFAAQQTTFAGFFPLLLAYSLTYMPTIALTNSIAFANVPDVERDFPRIRVMGTIGWIASGLACGFLPQILGYADISPTNIPLLITAGSSALLGVFAFFLPDTPPKSTGKMDIKVMLGLDALILLRDKNFLVFFFCSFLFAMPLAFYYIFANGYLTEVGMKNATGWMTLGQFSEIFFMLALPFFTKRFGIKKVLLLGLVTAAIRYGFFIYGSADEYFTYALLFLGILLHGVSYDFYYVTAYIYVDKKAPVHMRTAAQGLITLCCQGFGSLLGYRLGGVMMEKMFAYQEPVNGLTFNWSGMWTFGAVMIAIIAVLFMIFFRESDNEITAIKVDDRDIALTQGEVK							4.97 ± 0.24 h	9.17 h				
MKIKAVGAYSAKQPLEPMDITRREPGPNDVKIEIAYCGVCHSDLHQVRSEWAGTVYPCVPGHEIVGRVVAVGDQVEKYAPGDLVGVGCIVDSCKHCEECEDGLENYCDHMTGTYNSPTPDEPGHTLGGYSQQIVVHERYVLRIRHPQEQLAAVAPLLCAGITTYSPLRHWQAGPGKKVGVVGIGGLGHMGIKLAHAMGAHVVAFTTSEAKREAAKALGADEVVNSRNADEMAAHLKSFDFILNTVAAPHNLDDFTTLLKRDGTMTLVGAPATPHKSPEVFNLIMKRRAIAGSMIGGIPETQEMLDFCAEHGIVADIEMIRADQINEAYERMLRGDVKYRFVIDNRTLTD	4.84 ± 0.2 h	4.8 ± 0.18 h	4.92 ± 0.16 h	5.05 ± 0.38 h	4.66 ± 0.61 h	3.225 ± 0.021 h	5.86 ± 0.58 h	11 ± 0.91 h	5.04 ± 0.17 h	8.89 ± 0.21 h	6.23 ± 0.59 h	12 ± 0.78 h
